B1: TRIM9 (parent)
chain: PRNSCITCPQCHRSLILDDRGLRG

Variants of: B1
Assay: protein stability index of a GFP-peptide fusion (GPS, HEK-293T) (PSI 1-6); higher = more stable
Conditions: c terminus: a fixed tail appended
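Also: lentivirally expressed fusions sorted by FACS into six bins by GFP to DsRed ratio, PSI derived from sequencing read proportions per bin multiplied by bin number.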

**Q.** Which protein stability index does the source give for PRNSCITCPQCHRSLILDDAGLRG [R20A] here?
**A.** 1.98

**Q.** Which protein stability index does the source give for PRNSCITCPQCHRSLILDDWGLRG [R20W] here?
**A.** 1.44

**Q.** For PRNSCITCPQCHRSLILDDQGLRG [R20Q], which protein stability index is on record?
**A.** 2.04

**Q.** With PRNSCITCPQCHRSLILDDVGLRG [R20V] as the variant, how does the protein stability index read?
**A.** 1.82

**Q.** With PRNSCITCPQCHRSLILDDLGLRG [R20L] as the variant, how does the protein stability index read?
**A.** 1.93

**Q.** Which protein stability index does the source give for PRNSCITCPQCHRSLILDDCGLRG [R20C] here?
**A.** 2.39

**Q.** With PRNSCITCPQCHRSLILDDHGLRG [R20H] as the variant, how does the protein stability index read?
**A.** 1.62

**Q.** With PRNSCITCPQCHRSLILDDTGLRG [R20T] as the variant, how does the protein stability index read?
**A.** 3.07

**Q.** With PRNSCITCPQCHRSLILDDNGLRG [R20N] as the variant, how does the protein stability index read?
**A.** 2.05

**Q.** For PRNSCITCPQCHRSLILDDPGLRG [R20P], which protein stability index is on record?
**A.** 2.6

**Q.** For PRNSCITCPQCHRSLILDDFGLRG [R20F], which protein stability index is on record?
**A.** 1.69

**Q.** Which protein stability index does the source give for PRNSCITCPQCHRSLILDDIGLRG [R20I] here?
**A.** 1.85

**Q.** With PRNSCITCPQCHRSLILDDYGLRG [R20Y] as the variant, how does the protein stability index read?
**A.** 2.35

**Q.** Which protein stability index does the source give for PRNSCITCPQCHRSLILDDGGLRG [R20G] here?
**A.** 2.19

**Q.** With PRNSCITCPQCHRSLILDDDGLRG [R20D] as the variant, how does the protein stability index read?
**A.** 2.53

**Q.** For PRNSCITCPQCHRSLILDDKGLRG [R20K], which protein stability index is on record?
**A.** 1.98

**Q.** For PRNSCITCPQCHRSLILDDEGLRG [R20E], which protein stability index is on record?
**A.** 2.7

**Q.** Which protein stability index does the source give for PRNSCITCPQCHRSLILDDMGLRG [R20M] here?
**A.** 2.21

**Q.** With PRNSCITCPQCHRSLILDDRGLAG [R23A] as the variant, how does the protein stability index read?
**A.** 2.5

**Q.** Which protein stability index does the source give for PRNSCITCPQCHRSLILDDRGLFG [R23F] here?
**A.** 2.75

**Q.** With PRNSCITCPQCHRSLILDDRGLIG [R23I] as the variant, how does the protein stability index read?
**A.** 2.08

**Q.** For PRNSCITCPQCHRSLILDDRGLGG [R23G], which protein stability index is on record?
**A.** 2.48

**Q.** Which protein stability index does the source give for PRNSCITCPQCHRSLILDDRGLVG [R23V] here?
**A.** 1.93

**Q.** Which protein stability index does the source give for PRNSCITCPQCHRSLILDDRGLEG [R23E] here?
**A.** 3.21

**Q.** Which protein stability index does the source give for PRNSCITCPQCHRSLILDDRGLDG [R23D] here?
**A.** 2.96

**Q.** For PRNSCITCPQCHRSLILDDRGLKG [R23K], which protein stability index is on record?
**A.** 2.2

**Q.** With PRNSCITCPQCHRSLILDDRGLTG [R23T] as the variant, how does the protein stability index read?
**A.** 3

**Q.** With PRNSCITCPQCHRSLILDDRGLHG [R23H] as the variant, how does the protein stability index read?
**A.** 2.05

**Q.** Which protein stability index does the source give for PRNSCITCPQCHRSLILDDRGLSG [R23S] here?
**A.** 2.1

**Q.** Which protein stability index does the source give for PRNSCITCPQCHRSLILDDRGLCG [R23C] here?
**A.** 2.6

**Q.** With PRNSCITCPQCHRSLILDDRGLYG [R23Y] as the variant, how does the protein stability index read?
**A.** 1.63

**Q.** Which protein stability index does the source give for PRNSCITCPQCHRSLILDDRGLQG [R23Q] here?
**A.** 2.41

**Q.** With PRNSCITCPQCHRSLILDDRGLNG [R23N] as the variant, how does the protein stability index read?
**A.** 2.56

**Q.** For PRNSCITCPQCHRSLILDDRGLMG [R23M], which protein stability index is on record?
**A.** 1.67

**Q.** Which protein stability index does the source give for PRNSCITCPQCHRSLILDDRGLWG [R23W] here?
**A.** 1.25

**Q.** Which protein stability index does the source give for PRNSCITCPQCHRSLILDDRGLPG [R23P] here?
**A.** 2.42

**Q.** For PRNSCITCPQCHRSLILDDRGLLG [R23L], which protein stability index is on record?
**A.** 2.48

**Q.** For PRNSCITCPQCHRSLILDYRGLRG [D19Y], which protein stability index is on record?
**A.** 1.7

**Q.** With PRNSCITCPQCHRSLILDRRGLRG [D19R] as the variant, how does the protein stability index read?
**A.** 1.84

**Q.** For PRNSCITCPQCHRSLILDNRGLRG [D19N], which protein stability index is on record?
**A.** 1.93

**Q.** Which protein stability index does the source give for PRNSCITCPQCHRSLILDVRGLRG [D19V] here?
**A.** 1.4

**Q.** For PRNSCITCPQCHRSLILDWRGLRG [D19W], which protein stability index is on record?
**A.** 1.52

**Q.** With PRNSCITCPQCHRSLILDPRGLRG [D19P] as the variant, how does the protein stability index read?
**A.** 1.81

**Q.** For PRNSCITCPQCHRSLILDQRGLRG [D19Q], which protein stability index is on record?
**A.** 2.77

**Q.** For PRNSCITCPQCHRSLILDTRGLRG [D19T], which protein stability index is on record?
**A.** 2.42

**Q.** For PRNSCITCPQCHRSLILDSRGLRG [D19S], which protein stability index is on record?
**A.** 2.11

**Q.** Which protein stability index does the source give for PRNSCITCPQCHRSLILDDRGLRL [G24L] here?
**A.** 1.81

**Q.** With PRNSCITCPQCHRSLILDDRGLRM [G24M] as the variant, how does the protein stability index read?
**A.** 2.17

**Q.** Which protein stability index does the source give for PRNSCITCPQCHRSLILDDRGLRI [G24I] here?
**A.** 2.03

**Q.** With PRNSCITCPQCHRSLILDDRGLRN [G24N] as the variant, how does the protein stability index read?
**A.** 1.86

**Q.** Which protein stability index does the source give for PRNSCITCPQCHRSLILDDRGLRE [G24E] here?
**A.** 2.6

**Q.** With PRNSCITCPQCHRSLILDDRGLRP [G24P] as the variant, how does the protein stability index read?
**A.** 2.03

**Q.** For PRNSCITCPQCHRSLILDDRGLRF [G24F], which protein stability index is on record?
**A.** 2.34

**Q.** With PRNSCITCPQCHRSLILDDRGLRA [G24A] as the variant, how does the protein stability index read?
**A.** 2.13

**Q.** With PRNSCITCPQCHRSLILDDRGLRD [G24D] as the variant, how does the protein stability index read?
**A.** 2.08

**Q.** With PRNSCITCPQCHRSLILDDRGLRK [G24K] as the variant, how does the protein stability index read?
**A.** 1.71

**Q.** With PRNSCITCPQCHRSLILDDRGLRH [G24H] as the variant, how does the protein stability index read?
**A.** 3.02

**Q.** Which protein stability index does the source give for PRNSCITCPQCHRSLILDDRGLRC [G24C] here?
**A.** 2.35

**Q.** Which protein stability index does the source give for PRNSCITCPQCHRSLILDDRKLRG [G21K] here?
**A.** 2.52

**Q.** Which protein stability index does the source give for PRNSCITCPQCHRSLILDDRQLRG [G21Q] here?
**A.** 2.01

**Q.** Which protein stability index does the source give for PRNSCITCPQCHRSLILDDRLLRG [G21L] here?
**A.** 2.09

**Q.** For PRNSCITCPQCHRSLILDDRNLRG [G21N], which protein stability index is on record?
**A.** 2.17

**Q.** With PRNSCITCPQCHRSLILDDRILRG [G21I] as the variant, how does the protein stability index read?
**A.** 1.47

**Q.** Which protein stability index does the source give for PRNSCITCPQCHRSLILDDRELRG [G21E] here?
**A.** 2.93

**Q.** For PRNSCITCPQCHRSLILDDRVLRG [G21V], which protein stability index is on record?
**A.** 1.78

**Q.** With PRNSCITCPQCHRSLILDDRYLRG [G21Y] as the variant, how does the protein stability index read?
**A.** 2.24

**Q.** Which protein stability index does the source give for PRNSCITCPQCHRSLILDDRHLRG [G21H] here?
**A.** 2.11

**Q.** For PRNSCITCPQCHRSLILDDRMLRG [G21M], which protein stability index is on record?
**A.** 2.8

**Q.** Which protein stability index does the source give for PRNSCITCPQCHRSLILDDRTLRG [G21T] here?
**A.** 1.57

**Q.** For PRNSCITCPQCHRSLILDDRPLRG [G21P], which protein stability index is on record?
**A.** 2.27

**Q.** With PRNSCITCPQCHRSLILDDRFLRG [G21F] as the variant, how does the protein stability index read?
**A.** 1.88

**Q.** With PRNSCITCPQCHRSLILDDRSLRG [G21S] as the variant, how does the protein stability index read?
**A.** 1.71

**Q.** With PRNSCITCPQCHRSLILDDRALRG [G21A] as the variant, how does the protein stability index read?
**A.** 1.93

**Q.** For PRNSCITCPQCHRSLILDDRWLRG [G21W], which protein stability index is on record?
**A.** 2.06

**Q.** Which protein stability index does the source give for PRNSCITCPQCHRSLILDDRCLRG [G21C] here?
**A.** 2.52

**Q.** For PRNSCITCPQCHRSLILDDRDLRG [G21D], which protein stability index is on record?
**A.** 2.07

**Q.** Which protein stability index does the source give for PRNSCITCPQCHRSLILDDRGERG [L22E] here?
**A.** 2.21

**Q.** Which protein stability index does the source give for PRNSCITCPQCHRSLILDDRGNRG [L22N] here?
**A.** 2.34

**Q.** With PRNSCITCPQCHRSLILDDRGPRG [L22P] as the variant, how does the protein stability index read?
**A.** 3.51

**Q.** Which protein stability index does the source give for PRNSCITCPQCHRSLILDDRGDRG [L22D] here?
**A.** 3.81

**Q.** With PRNSCITCPQCHRSLILDDRGYRG [L22Y] as the variant, how does the protein stability index read?
**A.** 2.54

**Q.** Which protein stability index does the source give for PRNSCITCPQCHRSLILDDRGMRG [L22M] here?
**A.** 2.69

**Q.** Which protein stability index does the source give for PRNSCITCPQCHRSLILDDRGWRG [L22W] here?
**A.** 2.54

**Q.** Which protein stability index does the source give for PRNSCITCPQCHRSLILDDRGFRG [L22F] here?
**A.** 1.91

**Q.** For PRNSCITCPQCHRSLILDDRGQRG [L22Q], which protein stability index is on record?
**A.** 3.69

**Q.** Which protein stability index does the source give for PRNSCITCPQCHRSLILDDRGKRG [L22K] here?
**A.** 2.46

**Q.** With PRNSCITCPQCHRSLILDDRGHRG [L22H] as the variant, how does the protein stability index read?
**A.** 2.49

**Q.** With PRNSCITCPQCHRSLILDDRGTRG [L22T] as the variant, how does the protein stability index read?
**A.** 3.33

**Q.** For PRNSCITCPQCHRSLILDDRGSRG [L22S], which protein stability index is on record?
**A.** 2.62

**Q.** With PRNSCITCPQCHRSLILDDRGRRG [L22R] as the variant, how does the protein stability index read?
**A.** 2.84

**Q.** Which protein stability index does the source give for PRNSCITCPQCHRSLILDDRGVRG [L22V] here?
**A.** 2.55

**Q.** With PRNSCITCPQCHRSLILDDRGGRG [L22G] as the variant, how does the protein stability index read?
**A.** 2.3

**Q.** With PRNSCITCPQCHRSLILDDRGCRG [L22C] as the variant, how does the protein stability index read?
**A.** 2.32

**Q.** For PRNSCITCPQCHRSLILDDRGIRG [L22I], which protein stability index is on record?
**A.** 2.36
